Consider 68 variants from the supplement of paper PMC6755084.

Sequences and labels used below:
B1: F1*; the commonest letter at each place (parent)
chain: GAGACCGCAACTGAAAAGTTGTTATCACTTGTCGTAAGACACTTTGGATGGGTTGAAGTTCTGCACGTAGAAGCAAAAGGC

The series covers variants of B1. Put plainly: fraction ligated after 30 min (ligated reads / total reads); higher = more ligase activity. The note with it: with F1*sub RNA substrate (template-directed ligation), 42 °C. Here is the method:
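Chip-synthesised pool of F1* ligase ribozyme variants (all single and double substitutions, single, double and triple deletions in the catalytic core and GAA bulge, plus designed variants) was transcribed with T7 and reacted as a pool with excess substrate F1*sub for 30 min at 42 C in 50 mM EPPS pH 8.5, 25 mM MgCl2. Ligated and unligated bands were separated by PAGE, barcoded by RT and deep sequenced; fraction ligated = ligated reads / total reads per variant, relative activity = FL / FL of wild type (0.826). Sequences are the DNA template of the ribozyme.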
With GAGACCGCAACTGAAAAGTTGTGATCATTTGTCGTAAGACACTTTGGATGGGTTGAAGTTCTGCACGTAGAAGCAAAAGGC, the fraction ligated worked out at 0.782.

With GAGACCGCAACTGAAAAGTTGTGATCAATTGTCGTAAGACACTTTGGATGGGTTGAAGTTCTGCACGTAGAAGCAAAAGGC, the fraction ligated worked out at 0.789.

Consider GAGACCGCAACTGAAAAGTTGTGATCAGTTGTCGTAAGACACTTTGGATGGGTTGAAGTTCTGCACGTAGAAGCAAAAGGC, for which the fraction ligated amounted to 0.791. As for GAGACCGCAACTGAAAAGTTGTGATCACTTGTCGTAAGACAGTTTGGATGGGTTGAAGTTCTGCACGTAGAAGCAAAAGGC, the figure is 0.829; as for GAGACCGCAACTGAAAAGTTGTGATCACTTGTCGTAAGACAATTTGGATGGGTTGAAGTTCTGCACGTAGAAGCAAAAGGC, 0.835. For the variant GAGACCGCAACTGAAAAGTTGTGATCACTTGTCGTAAGACATTTTGGATGGGTTGAAGTTCTGCACGTAGAAGCAAAAGGC, the fraction ligated was 0.838. For the variant GAGACCGCAACTGAAAAGTTGTGATCACTTGTCGTAAGACGCTTTGGATGGGTTGAAGTTCTGCACGTAGAAGCAAAAGGC, the fraction ligated came out at 0.746. The result for GAGACCGCAACTGAAAAGTTGTGATCACTTGTCGTAAGACTCTTTGGATGGGTTGAAGTTCTGCACGTAGAAGCAAAAGGC reads 0.792; that for GAGACCGCAACTGAAAAGTTGTGATCACTTGTCGTAAGACCCTTTGGATGGGTTGAAGTTCTGCACGTAGAAGCAAAAGGC, 0.727. As to GAGACCGCAACTGAAAAGTTGTGATCACTTGTCCTAAGACACTTTGGATGGGTTGAAGTTCTGCACGTAGAAGCAAAAGGC, the fraction ligated was 0.799. As for GAGACCGCAACTGAAAAGTTGTGATCACTTGTCATAAGACACTTTGGATGGGTTGAAGTTCTGCACGTAGAAGCAAAAGGC, the figure is 0.802; as for GAGACCGCAACTGAAAAGTTGTGATCACTTGTCTTAAGACACTTTGGATGGGTTGAAGTTCTGCACGTAGAAGCAAAAGGC, 0.794; as for GAGACCGCAACTGAAAAGTTGTGCTCGATTGTCGTAAGACAGTTTGAATGGGTTGAAGTTCTGCACGTAGAAGCAAAAGGC, 0.812. The result for GAGACCGCAACTGAAAAGTTGTGATCACTTGTTGTAAGACACTTTGGATGGGTTGAAGTTCTGCACGTAGAAGCAAAAGGC reads 0.893. The result for GAGACCGCAACTGAAAAGTTGTGATCACTTGTAGTAAGACACTTTGGATGGGTTGAAGTTCTGCACGTAGAAGCAAAAGGC reads 0.866; that for GAGACCGCAACTGAAAAGTTGTGATCACTTGTGGTAAGACACTTTGGATGGGTTGAAGTTCTGCACGTAGAAGCAAAAGGC, 0.848; that for GAGACCGCAACTGAAAAGTTGTGATTACTTGTCGTAAGACACTTTGGATGGGTTGAAGTTCTGCACGTAGAAGCAAAAGGC, 0.82. In the case of GAGACCGCAACTGAAAAGTTGTGATGACTTGTCGTAAGACACTTTGGATGGGTTGAAGTTCTGCACGTAGAAGCAAAAGGC, the fraction ligated worked out at 0.74. As for GAGACCGCAACTGAAAAGTTGTGATAACTTGTCGTAAGACACTTTGGATGGGTTGAAGTTCTGCACGTAGAAGCAAAAGGC, the figure is 0.789. The result for GAGACCGCAACTGAAAAGTTGTGATCTCTTGTCGTAAGACACTTTGGATGGGTTGAAGTTCTGCACGTAGAAGCAAAAGGC reads 0.801; that for GAGACCGCAACTGAAAAGTTGTGATCCCTTGTCGTAAGACACTTTGGATGGGTTGAAGTTCTGCACGTAGAAGCAAAAGGC, 0.785; that for GAGACCGCAACTGAAAAGTTGTGATCGCTTGTCGTAAGACACTTTGGATGGGTTGAAGTTCTGCACGTAGAAGCAAAAGGC, 0.788. The result for GAGACCGCAACTGAAAAGTTGTGATCACTTGTCGTAAGACACTTTGGATGGGTTGAGGTTCTGCACGTAGAAGCAAAAGGC reads 0.819; that for GAGACCGCAACTGAAAAGTTGTGATCACTTGTCGTAAGACACTTTGGATGGGTTGATGTTCTGCACGTAGAAGCAAAAGGC, 0.812; that for GAGACCGCAACTGAAAAGTTGTGATCACTTGTCGTAAGACACTTTGGATGGGTTGACGTTCTGCACGTAGAAGCAAAAGGC, 0.779. Turning to GAGACCGCAACTGAAAAGTTGTGATCACTTGTCGTAAGACACTTTGGATGGGTTGAAGTTCTGCACGTAGAAGCAAAAGGC, the fraction ligated is 0.855. For GAGACCGCAACTGAAAAGTTGTCATCACTTGTCGTAAGACACTTAGGATGGGTTGAAGTTCTGCACGTAGAAGCAAAAGGC, the fraction ligated amounted to 0.266. As to GAGACCGCAACTGAAAAGTTGTCATCACTTGTCGTAAGACACTTCGGATGGGTTGAAGTTCTGCACGTAGAAGCAAAAGGC, the fraction ligated came to 0.208.

GAGACCGCAACTGAAAAGTTGTCATCACTTGTCGTAAGACACTTGGGATGGGTTGAAGTTCTGCACGTAGAAGCAAAAGGC: the fraction ligated is 0.027. The result for GAGACCGCAACTGAAAAGTTGTGATCACTTGTCGTAAGACACTTTGGATGGGTTGTAGTTCTGCACGTAGAAGCAAAAGGC reads 0.772; that for GAGACCGCAACTGAAAAGTTGTGATCACTTGTCGTAAGACACTTTGGATGGGTTGGAGTTCTGCACGTAGAAGCAAAAGGC, 0.792; that for GAGACCGCAACTGAAAAGTTGTGATCACTTGTCGTAAGACACTTTGGATGGGTTGCAGTTCTGCACGTAGAAGCAAAAGGC, 0.794. The result for GAGACCGCAACTGAAAAGTTGTCATCACTTGTCGTAAGACACTTTGGACGGGTTGAAGTTCTGCACGTAGAAGCAAAAGGC reads 0.715. As for GAGACCGCAACTGAAAAGTTGTCATCACTTGTCGTAAGACACTTTGGAAGGGTTGAAGTTCTGCACGTAGAAGCAAAAGGC, the figure is 0.792.

Consider GAGACCGCAACTGAAAAGTTGTCATCACTTGTCGTAAGACACTTTGGAGGGGTTGAAGTTCTGCACGTAGAAGCAAAAGGC, for which the fraction ligated amounted to 0.78. As to GAGACCGCAACTGAAAAGTTGTGATCACTTGTCGTCAGACACTTTGGATGGGTTGAAGTTCTGCACGTAGAAGCAAAAGGC, the fraction ligated was determined as 0.882. As for GAGACCGCAACTGAAAAGTTGTGATCACTTGTCGTTAGACACTTTGGATGGGTTGAAGTTCTGCACGTAGAAGCAAAAGGC, the figure is 0.841; as for GAGACCGCAACTGAAAAGTTGTGATCACTTGTCGTGAGACACTTTGGATGGGTTGAAGTTCTGCACGTAGAAGCAAAAGGC, 0.885. GAGACCGCAACTGAAAAGTTGTGATCACTTGTCGTAACACACTTTGGATGGGTTGAAGTTCTGCACGTAGAAGCAAAAGGC: the fraction ligated is 0.808. The result for GAGACCGCAACTGAAAAGTTGTGATCACTTGTCGTAAAACACTTTGGATGGGTTGAAGTTCTGCACGTAGAAGCAAAAGGC reads 0.803. As for GAGACCGCAACTGAAAAGTTGTGATCACTTGTCGTAATACACTTTGGATGGGTTGAAGTTCTGCACGTAGAAGCAAAAGGC, the figure is 0.81; as for GAGACCGCAACTGAAAAGTTGTCATCACTTGTCGTAAGACACTGTGGATGGGTTGAAGTTCTGCACGTAGAAGCAAAAGGC, 0.779; as for GAGACCGCAACTGAAAAGTTGTCATCACTTGTCGTAAGACACTCTGGATGGGTTGAAGTTCTGCACGTAGAAGCAAAAGGC, 0.8.

As for GAGACCGCAACTGAAAAGTTGTCATCACTTGTCGTAAGACACTATGGATGGGTTGAAGTTCTGCACGTAGAAGCAAAAGGC, the fraction ligated is 0.817. The result for GAGACCGCAACTGAAAAGTTGTGATCACTTGTCGTAAGCCACTTTGGATGGGTTGAAGTTCTGCACGTAGAAGCAAAAGGC reads 0.776; that for GAGACCGCAACTGAAAAGTTGTGATCACTTGTCGTAAGTCACTTTGGATGGGTTGAAGTTCTGCACGTAGAAGCAAAAGGC, 0.79. Turning to GAGACCGCAACTGAAAAGTTGTGATCACTTGTCGTAAGGCACTTTGGATGGGTTGAAGTTCTGCACGTAGAAGCAAAAGGC, the fraction ligated is 0.867. As for GAGACCGCAACTGAAAAGTTGTGATCACTTGTCGTAAGACACTTTGGGTGGGTTGAAGTTCTGCACGTAGAAGCAAAAGGC, the figure is 0.788.

GAGACCGCAACTGAAAAGTTGTGATCACTTGTCGTAAGACACTTTGGCTGGGTTGAAGTTCTGCACGTAGAAGCAAAAGGC: the fraction ligated was determined as 0.74. As for GAGACCGCAACTGAAAAGTTGTGATCACTTGTCGTAAGACACTTTGGTTGGGTTGAAGTTCTGCACGTAGAAGCAAAAGGC, the figure is 0.781. The result for GAGACCGCAACTGAAAAGTTGTGATCACTTATCGTAAGACACTTTGGATGGGTTGAAGTTCTGCACGTAGAAGCAAAAGGC reads 0.849; that for GAGACCGCAACTGAAAAGTTGTGATCACTTTTCGTAAGACACTTTGGATGGGTTGAAGTTCTGCACGTAGAAGCAAAAGGC, 0.868. The result for GAGACCGCAACTGAAAAGTTGTGATCACTTCTCGTAAGACACTTTGGATGGGTTGAAGTTCTGCACGTAGAAGCAAAAGGC reads 0.849. Consider GAGACCGCAACTGAAAAGTTGTGATCACTTGTCGTACGACACTTTGGATGGGTTGAAGTTCTGCACGTAGAAGCAAAAGGC, for which the fraction ligated is 0.819. As for GAGACCGCAACTGAAAAGTTGTGATCACTTGTCGTAGGACACTTTGGATGGGTTGAAGTTCTGCACGTAGAAGCAAAAGGC, the figure is 0.867; as for GAGACCGCAACTGAAAAGTTGTGATCACTTGTCGTATGACACTTTGGATGGGTTGAAGTTCTGCACGTAGAAGCAAAAGGC, 0.821; as for GAGACCGCAACTGAAAAGTTGTGATCACTTGTCGTAAGACACTTTGTATGGGTTGAAGTTCTGCACGTAGAAGCAAAAGGC, 0.346. The result for GAGACCGCAACTGAAAAGTTGTGATCACTTGTCGTAAGACACTTTGCATGGGTTGAAGTTCTGCACGTAGAAGCAAAAGGC reads 0.0263; that for GAGACCGCAACTGAAAAGTTGTGATCACTTGTCGTAAGACACTTTGAATGGGTTGAAGTTCTGCACGTAGAAGCAAAAGGC, 0.79; that for GAGACCGCAACTGAAAAGTTGTGATCACTTGTCGTAAGACACTTTTGATGGGTTGAAGTTCTGCACGTAGAAGCAAAAGGC, 0.759. With GAGACCGCAACTGAAAAGTTGTGATCACTTGTCGTAAGACACTTTCGATGGGTTGAAGTTCTGCACGTAGAAGCAAAAGGC, the fraction ligated stood at 0.803.

In the case of GAGACCGCAACTGAAAAGTTGTGATCACTTGTCGTAAGACACTTTAGATGGGTTGAAGTTCTGCACGTAGAAGCAAAAGGC, the fraction ligated was 0.809. As for GAGACCGCAACTGAAAAGTTGTGATCACTTGTCGTAAGATACTTTGGATGGGTTGAAGTTCTGCACGTAGAAGCAAAAGGC, the figure is 0.864; as for GAGACCGCAACTGAAAAGTTGTGATCACTTGTCGTAAGAAACTTTGGATGGGTTGAAGTTCTGCACGTAGAAGCAAAAGGC, 0.873. The result for GAGACCGCAACTGAAAAGTTGTGATCACTTGTCGTAAGAGACTTTGGATGGGTTGAAGTTCTGCACGTAGAAGCAAAAGGC reads 0.812. The result for GAGACCGCAACTGAAAAGTTGTGCTCACTTGTCGTAAGACACTTTGGATGGGTTGAAGTTCTGCACGTAGAAGCAAAAGGC reads 0.773; that for GAGACCGCAACTGAAAAGTTGTGGTCACTTGTCGTAAGACACTTTGGATGGGTTGAAGTTCTGCACGTAGAAGCAAAAGGC, 0.091; that for GAGACCGCAACTGAAAAGTTGTGTTCACTTGTCGTAAGACACTTTGGATGGGTTGAAGTTCTGCACGTAGAAGCAAAAGGC, 0.794.
